# Laboratory results reported in paper PMC12237909, “Wheat endosperm-specific transcription factor TaDOF6 enhances grain development by regulating TaSWEET13h expression and facilitating sugar and gibberellin transport”.
# B1: TaSWEET13h promoter P-box probe (dsDNA)
# DNA 1: ATTAAAGCTAAAGTGTACACCAAAGCGACAACTTTTG
# DNA 2: CAAAAGTTGTCGCTTTGGTGTACACTTTAGCTTTAAT
# Target: T1, TaDOF6 (Triticum aestivum (wheat; cultivar of …, UniProt A0A3B6LII6 1-338)
# T1 sequence: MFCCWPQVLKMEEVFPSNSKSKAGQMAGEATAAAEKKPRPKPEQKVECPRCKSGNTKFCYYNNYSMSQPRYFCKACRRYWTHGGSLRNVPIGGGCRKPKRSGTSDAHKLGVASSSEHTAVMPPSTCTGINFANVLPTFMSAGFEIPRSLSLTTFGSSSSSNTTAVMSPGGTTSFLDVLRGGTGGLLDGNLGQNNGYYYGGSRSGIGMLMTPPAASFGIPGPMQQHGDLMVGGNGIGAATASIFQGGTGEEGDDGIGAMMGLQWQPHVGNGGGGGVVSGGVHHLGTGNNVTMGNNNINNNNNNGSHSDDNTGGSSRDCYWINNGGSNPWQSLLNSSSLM
# Experiment: EMSA; EMSA buffer, salt, pH and temperature not stated (gel as in Zhang et al., 2016); probes annealed 95 C to 25 C
# Settings: protein: recombinant; tags: His (pETMALc-H vector); label: biotin (printed at both ends of each strand); blunt
binder,measurement,value
B1,binding result,binds
